The supplement of paper PMC9170038

Assays:
MS2 coat protein [1] = assay: apparent KD of MS2 coat protein, switch ON state; designed switch direction (-1 OFF switch, 1 ON switch): -1; higher = weaker reporter binding; conditions: FMN input: 0 or 200 uM; Eterna round: R93 (includes R88 designs)
Method in brief: (§1)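 The designed RNA switches were transcribed on-chip from Illumina sequencing clusters. In 100 mM Tris-HCl pH 7.5, 80 mM KCl and 4 mM MgCl2, without or with constant ligand, they were titrated with SNAP-549-labelled MS2 coat protein from 0.7 or 1.5 nM to 3 µM in twofold steps. Apparent KD is the per-design median of normalised cluster binding-curve fits.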

MS2 coat protein [2] = assay: apparent KD of MS2 coat protein, switch OFF state (with FMN for OFF switches, without FMN for ON switches); designed switch direction (-1 OFF switch, 1 ON switch): -1; higher = weaker reporter binding; conditions: FMN input: 0 or 200 uM; Eterna round: R93 (includes R88 designs)
Method in brief: as §1

Row | Sequence | apparent KD of MS2 coat protein (MS2 coat protein [1]) | apparent KD of MS2 coat protein (MS2 coat protein [2])
1 | AAAAAUGGAGGAUAUACAUGAGGAUCACCCAUGUGUGACUAUACUAUGUGCUCUUCAGGUAGAAGGCCAAAAAA [Gilly Gone Silly 19 - Jieux - Exclusion 3] | 44.3 nM | 249 nM
2 | AAAAAUGGAGGAUAUACAUGAGGAUCACCCAUGUUAGAACAAAAAAAAGGGAAAGAAAGUAGAAGGCCAUAAAA [Ex 3 May 25] | 34.7 nM | 49.1 nM
3 | AAAACACAUGAGGAUCACCCAUGUGAGGAUAUCGUGCAGUAGACGAAAGUCUACUGCACGAGAAGGCACAAGGA [Tweaking Brourd] | 33 nM | 50.2 nM
4 | AAAACACAUGAGGAUCACCCAUGUGAGGAUAUGCGAAAAAAAAAAAAAAAAAAAAAACGCAGAAGGCACAUAAA [jn_teaneck] | 23.6 nM | 43.5 nM
5 | AAAACACAUGAGGAUCACCCAUGUGAGGAUAUGCUAUGGAAAUAAAAAAUAAAACAUAGCAGAAGGCGCAGGAA [Mat - Exclusion 1 - Eli mod - D47] | 25.2 nM | 29.1 nM
6 | AAAACGUCAGGAUAUACAGAAGAGAUCACAAAAAAAAAAAAACAUGAGGAUCACCCAUGUAGAAGGGACAAAAA [Ex2 Malc#2] | 111 nM | 115 nM
7 | AAAACUAGAGGAUAUACGAACAUGUCAAAAGACGUGAAGGGACAUGAGGAUCACCCAUGUAGAAGGCUAGAAAA [JL Stem Breaker 11] | 55.6 nM | 71.9 nM
8 | AAAAGCAGAGGAUAUACAUAAUUAUGACGAAAGUCAUAAAAACAUGAGGAUCACCCAUGUAGAAGGCUGCAAAA [MOD of Meechl's MS2 Ex2 (MS2 riboswitches - Exlclusion 2)] | 24.9 nM | 28.1 nM
9 | AAAAGGGCAGGAUAUGCGUACUCACGGAAAAACUGGAUGGUACAUGAGGAUCACCCAUGUAGAAGGGCUAAAAA [Dora Explored 17 - Jieux - Exclusion 2] | 57.5 nM | 40.9 nM
10 | AAAAGGUCAGGAUAUGCCCACCAGGAAAAAAAACCAGGUGGGCAGAAGGGACAUGAGGAUCACCCAUGUAAAAA [Excls4-I] | 59.6 nM | 107 nM
11 | AAAAGGUGAGGAUAUACGAAAAAAAAAAAAAAAAAAAAAAAGUAGAAGGCACAUGAGGAUCACCCAUGUAAAAA [LROPPY Exclusion 4 - v01_deltaG=2.54] | 31.3 nM | 41.3 nM
12 | AAAAUAAAAGGAUAUAAAAAUAAAAGUCAGGAUAUAGGAAACUAGAAGGGACAUGAGGAUCACCCAUGUAAAAU [Meechl Ex4 R2 m1] | 47.8 nM | 33.8 nM
13 | AAAAUACAUGAGGAUCACCCAUGUGAGGAUAUGAGAAAGGGAAUAAAAUAACCCAAACUCAGAAGGCACAAAAA [Ex 1 May 26] | 35.9 nM | 45.9 nM
14 | AAACCACAUGAGGAUCACCCAUGUCAGGAUAUGCUAUGGAAAAAUAAAAUAAAACAUAGCAGAAGGGACAAAAA [Mat - Exclusion 1 - Eli mod - D34] | 31.1 nM | 52 nM
15 | AAACUACUAGGAUAUACAACGGUGUCCUAACUACUAAGAAAACAUGAGGAUCACCCAUGUAGAAGGAGUAAUAA [Cearused] | 35.8 nM | 78.2 nM
16 | AAACUGGUAGGAUAUGCUAGGGCGAUUAAUACGCCGAUAGUACAUGAGGAUCACCCAUGUAGAAGGGCCAGAAA [Mat - Exclusion 2 - JL mod - D65] | 30.8 nM | 23.6 nM
17 | AAAGGACAUGAGGAUCACCCAUGUGAGGAUAUCGGAAAAGGAAAAAAAAAAAAGAAGACGAGAAGGCACACCAA | 38.8 nM | 55.6 nM
18 | AAAGGACGAGGAUAUACAUGAGGAUCACCCAUGUAAAAAACAUAAUAAAAGAAUAUAUGUAGAAGGCGUCCAAA [Ruby 59] | 18.7 nM | 17.8 nM
19 | AAAGGAUCAGGAUAUGCGUGGAAAAAGUGUAUUCAAAAAAAACAUGAGGAUCACCCAUGUAGAAGGGAUCCAAA [Normal (20/19)] | 140 nM | 546 nM
20 | AAAUACUAAGGAUAUACAUGAGGAUCACCCAUGUACAAACCCGUGGAACGGAUCCUUAGUAGAAGGUGGACGAA [Onquerar] | 13.6 nM | 13.9 nM
